Data as given in patent publication US20180265582A1.

Target: human PD-1 (programmed cell death 1) (human) (UniProt Q15116)
Experiment: column Affinity (nM); by the footnote of Tables 3 and 11: FACS staining of endogenous cell surface PD-1 on activated CD4 T cells [row BMS-5C4]

UniProt Q15116, sequence (Q15116 25-288 limits assumed): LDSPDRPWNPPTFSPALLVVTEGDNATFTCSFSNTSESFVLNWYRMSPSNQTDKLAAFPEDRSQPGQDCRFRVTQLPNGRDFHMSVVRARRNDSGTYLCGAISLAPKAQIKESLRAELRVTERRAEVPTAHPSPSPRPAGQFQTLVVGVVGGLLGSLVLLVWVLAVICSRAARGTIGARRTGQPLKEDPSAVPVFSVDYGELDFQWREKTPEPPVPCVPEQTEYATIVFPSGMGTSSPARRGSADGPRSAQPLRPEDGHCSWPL

For BMS-5C4 (antibody), the Affinity was 0.6 nM.
